For assay [1], the target named is His-tagged C-propeptide of the human procollagen α1(I) chain (C1A1His), chain of homo-CPI (human). In words: SDS-PAGE (non-reducing and reducing) + MALDI-TOF mass spectrometry; purified homo-CPI; ~85 kDa non-reducing, 30 kDa reducing; disulfide-bonded trimer.
Assay [2] concerns the target His-tagged C-propeptide of the human procollagen α2(I) chain (C1A2His) (human). In words: co-purification (Co2+ affinity by the His-tag of the α2 chain, gel filtration) with SDS-PAGE and MALDI-TOF mass spectrometry; α1 and α2 C-propeptides co-expressed in HEK 293T (plasmids 2:1); hetero-CPI separated from untagged homo-CPI by the His-tag of the α2 chain; with or without removal of the tag by TEV protease; Superdex S200. A general note: Size exclusion chromatography separates by hydrodynamic size, large species first.

This is an account of results in publication PMC5353611.

Take “His-tagged C-propeptide of the human procollagen α1(I) chain (C1A1His), chain of homo-CPI (domain or fragment)”: in assay [1], the stoichiometry N worked out at 3.

In assay [2], “Non-tagged C-propeptide of the human procollagen α1(I) chain (C1A1) (domain or fragment)” returned a stoichiometry N (α1 chains per α2 chain) of 2.

Usually stoichiometry N stands for a count of units in the complex or per binding partner.
